Results on 125 sequences are retold here after the supplement of paper PMC9112550, “Optimization of the antimicrobial peptide Bac7 by deep mutational scanning” (BMC Biology, 2022).

This series relates to Escherichia coli TOP10. As to the kind of experiment: shrunken log2 fold change of peptide-encoding DNA abundance (4.5 h post-induction vs induction); higher = less antimicrobial activity (less host growth inhibition). The settings on record: time post-induction: 4.5 h; library: site-saturation at positions 5, 18, 19, 20.
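Further: peptides expressed intracellularly from a pBAD plasmid library in pooled LB shake-flask culture, induced with 0.3% L-arabinose, DNA abundance read by NGS, three biological replicates, DESeq2 with apeglm shrinkage.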

As to RRIRPRPPRLPRPRPRPANPPRP, the “shrunken log2 fold change” value was 0.13.
As for RRIRCRPPRLPRPRPRPNGQPRP, the figure is -0.0579.
Take RRIRRRPPRLPRPRPRPGRQPRP: the “shrunken log2 fold change” value was determined as 0.541.
As for RRIRRRPPRLPRPRPRPATFPRP, the figure is 0.0785.
In the case of RRIRWRPPRLPRPRPRPVADPRP it was 1.07.
As to RRIRMRPPRLPRPRPRPKWNPRP, the “shrunken log2 fold change” value was determined as 0.523.
As for RRIRGRPPRLPRPRPRPPDYPRP, the “shrunken log2 fold change” value amounted to 0.135.
In the case of RRIRNRPPRLPRPRPRPGFQPRP it was -0.0148.
Take RRIRYRPPRLPRPRPRPPIDPRP: the “shrunken log2 fold change” value is -0.35.
For the sequence RRIRARPPRLPRPRPRPLIRPRP, the “shrunken log2 fold change” value was -0.0546.
With RRIRHRPPRLPRPRPRPGIQPRP, the “shrunken log2 fold change” value is -0.277.
In the case of RRIRSRPPRLPRPRPRPINEPRP it was -0.249; in that of RRIRTRPPRLPRPRPRPCRTPRP, -0.0391.
RRIRLRPPRLPRPRPRPNGNPRP: the “shrunken log2 fold change” value is -0.218.
RRIRQRPPRLPRPRPRPHENPRP: the “shrunken log2 fold change” value is -0.0313.
Regarding RRIRPRPPRLPRPRPRPDVWPRP, the “shrunken log2 fold change” value was 0.266.
With RRIRDRPPRLPRPRPRPSLVPRP, the “shrunken log2 fold change” value was -0.0908.
As for RRIRERPPRLPRPRPRPMDIPRP, the figure is -0.235.
As for RRIRFRPPRLPRPRPRPVKTPRP, the figure is 0.0856; as for RRIRKRPPRLPRPRPRPINYPRP, -0.0959.
Turning to RRIRFRPPRLPRPRPRPNCTPRP, the “shrunken log2 fold change” value is 0.0099.
With RRIRARPPRLPRPRPRPCEVPRP, the “shrunken log2 fold change” value came out at 3.46.
For RRIRIRPPRLPRPRPRPNGGPRP, the “shrunken log2 fold change” value was -0.108.
In the case of RRIRIRPPRLPRPRPRPWWQPRP it was 0.0732.
Regarding RRIRHRPPRLPRPRPRPVLVPRP, the “shrunken log2 fold change” value is -0.0156.
For the sequence RRIRRRPPRLPRPRPRPTAQPRP, the “shrunken log2 fold change” value stood at 0.244.
Take RRIRSRPPRLPRPRPRPAMTPRP: the “shrunken log2 fold change” value was 0.459.
As for RRIRLRPPRLPRPRPRPRAPPRP, the figure is 0.71.
On to RRIRKRPPRLPRPRPRPFEVPRP, for which the “shrunken log2 fold change” value is -0.0185.
Turning to RRIRCRPPRLPRPRPRPVIRPRP, the “shrunken log2 fold change” value is -0.733.
Consider RRIRPRPPRLPRPRPRPGSLPRP, for which the “shrunken log2 fold change” value is -0.0171.
As to RRIRDRPPRLPRPRPRPLMRPRP, the “shrunken log2 fold change” value worked out at 0.665.
In the case of RRIRKRPPRLPRPRPRPAQNPRP it was 0.943.
Regarding RRIRSRPPRLPRPRPRPRKLPRP, the “shrunken log2 fold change” value turned out to be 0.316.
RRIRLRPPRLPRPRPRPYNRPRP: the “shrunken log2 fold change” value is -0.113.
In the case of RRIRGRPPRLPRPRPRPAHCPRP, the “shrunken log2 fold change” value was determined as 1.06.
Regarding RRIRVRPPRLPRPRPRPITVPRP, the “shrunken log2 fold change” value was -1.15.
Regarding RRIRRRPPRLPRPRPRPLLHPRP, the “shrunken log2 fold change” value was 0.295.
With RRIRFRPPRLPRPRPRPAKCPRP, the “shrunken log2 fold change” value is -0.00691.
Regarding RRIRMRPPRLPRPRPRPVIRPRP, the “shrunken log2 fold change” value amounted to 0.00204.
In the case of RRIRIRPPRLPRPRPRPQSYPRP, the “shrunken log2 fold change” value was -0.603.
Consider RRIRMRPPRLPRPRPRPYNRPRP, for which the “shrunken log2 fold change” value is -0.336.
Regarding RRIRSRPPRLPRPRPRPLHYPRP, the “shrunken log2 fold change” value was -0.908.
On to RRIRHRPPRLPRPRPRPKFDPRP, for which the “shrunken log2 fold change” value is -0.336.
In the case of RRIRYRPPRLPRPRPRPEKGPRP, the “shrunken log2 fold change” value is -0.00176.
As for RRIRNRPPRLPRPRPRPLSHPRP, the figure is -0.596.
For the sequence RRIRWRPPRLPRPRPRPGTCPRP, the “shrunken log2 fold change” value amounted to 0.0934.
As for RRIRFRPPRLPRPRPRPTFVPRP, the figure is -0.051.
With RRIRGRPPRLPRPRPRPNYDPRP, the “shrunken log2 fold change” value came to 0.134.
Turning to RRIRMRPPRLPRPRPRPKCEPRP, the “shrunken log2 fold change” value stood at 0.52.
In the case of RRIRGRPPRLPRPRPRPEQMPRP it was 0.152; in that of RRIRQRPPRLPRPRPRPKYHPRP, -0.171; in that of RRIRDRPPRLPRPRPRPPKGPRP, 0.644.
In the case of RRIRPRPPRLPRPRPRPAFPPRP it was 0.409; in that of RRIRVRPPRLPRPRPRPKMGPRP, 0.0797; in that of RRIRPRPPRLPRPRPRPRCPPRP, 0.208.
For RRIRSRPPRLPRPRPRPFAKPRP, the “shrunken log2 fold change” value was -0.136.
As for RRIRPRPPRLPRPRPRPMCMPRP, the figure is -0.32.
For RRIRKRPPRLPRPRPRPDKVPRP, the “shrunken log2 fold change” value was found to be 0.116.
In the case of RRIRKRPPRLPRPRPRPMLKPRP it was 0.954; in that of RRIRFRPPRLPRPRPRPDDMPRP, -0.0994; in that of RRIRCRPPRLPRPRPRPFYWPRP, 0.0228.
As to RRIRKRPPRLPRPRPRPPSRPRP, the “shrunken log2 fold change” value amounted to 0.772.
For the sequence RRIRDRPPRLPRPRPRPVIEPRP, the “shrunken log2 fold change” value stood at 0.662.
Regarding RRIRVRPPRLPRPRPRPLAKPRP, the “shrunken log2 fold change” value was -0.252.
Take RRIRWRPPRLPRPRPRPCLQPRP: the “shrunken log2 fold change” value was -0.21.
As for RRIRRRPPRLPRPRPRPACDPRP, the figure is 0.539; as for RRIRIRPPRLPRPRPRPFPNPRP, -0.939; as for RRIRGRPPRLPRPRPRPMWKPRP, 0.0121.
For RRIRSRPPRLPRPRPRPIAPPRP, the “shrunken log2 fold change” value is -0.0336.
For the sequence RRIRDRPPRLPRPRPRPNQYPRP, the “shrunken log2 fold change” value is -0.428.
Consider RRIRIRPPRLPRPRPRPANYPRP, for which the “shrunken log2 fold change” value is -0.33.
Take RRIRQRPPRLPRPRPRPDAVPRP: the “shrunken log2 fold change” value is -0.0012.
Regarding RRIRNRPPRLPRPRPRPQHGPRP, the “shrunken log2 fold change” value is -0.0487.
In the case of RRIRCRPPRLPRPRPRPKSHPRP it was -0.117; in that of RRIRCRPPRLPRPRPRPWAQPRP, -0.211.
With RRIRGRPPRLPRPRPRPNAIPRP, the “shrunken log2 fold change” value is 0.668.
Take RRIRRRPPRLPRPRPRPWADPRP: the “shrunken log2 fold change” value is -0.143.
With RRIRVRPPRLPRPRPRPPCEPRP, the “shrunken log2 fold change” value was determined as 0.229.
Consider RRIRQRPPRLPRPRPRPHERPRP, for which the “shrunken log2 fold change” value stood at 0.158.
As to RRIRVRPPRLPRPRPRPWWNPRP, the “shrunken log2 fold change” value was -0.0063.
In the case of RRIRKRPPRLPRPRPRPDVKPRP it was -0.0302; in that of RRIRIRPPRLPRPRPRPLMGPRP, -0.166.
For RRIRRRPPRLPRPRPRPKLVPRP, the “shrunken log2 fold change” value stood at 0.485.
Regarding RRIRNRPPRLPRPRPRPTFYPRP, the “shrunken log2 fold change” value was -0.376.
In the case of RRIRARPPRLPRPRPRPHHNPRP it was -0.483; in that of RRIRPRPPRLPRPRPRPAYNPRP, -1.01.
As for RRIRSRPPRLPRPRPRPRWQPRP, the figure is 0.166; as for RRIRRRPPRLPRPRPRPNGYPRP, 0.17; as for RRIRGRPPRLPRPRPRPGMKPRP, 0.484.
Take RRIRMRPPRLPRPRPRPAIMPRP: the “shrunken log2 fold change” value was 0.284.
On to RRIRRRPPRLPRPRPRPPPIPRP, for which the “shrunken log2 fold change” value was determined as 0.978.
In the case of RRIRKRPPRLPRPRPRPCSPPRP it was -0.102; in that of RRIRKRPPRLPRPRPRPKSAPRP, 0.656; in that of RRIRLRPPRLPRPRPRPVYDPRP, -0.0147.
For the sequence RRIRERPPRLPRPRPRPLQQPRP, the “shrunken log2 fold change” value is 0.0643.
As for RRIRMRPPRLPRPRPRPEYIPRP, the figure is 0.0145.
In the case of RRIRWRPPRLPRPRPRPTPGPRP, the “shrunken log2 fold change” value was determined as 0.572.
On to RRIRPRPPRLPRPRPRPDNNPRP, for which the “shrunken log2 fold change” value was -0.512.
As to RRIRMRPPRLPRPRPRPIELPRP, the “shrunken log2 fold change” value is -0.04.
Regarding RRIRTRPPRLPRPRPRPGEMPRP, the “shrunken log2 fold change” value amounted to 0.136.
RRIRPRPPRLPRPRPRPLFAPRP: the “shrunken log2 fold change” value turned out to be 0.206.
As for RRIRIRPPRLPRPRPRPIHVPRP, the “shrunken log2 fold change” value is 0.0502.
Consider RRIRIRPPRLPRPRPRPKNTPRP, for which the “shrunken log2 fold change” value is -0.695.
With RRIRSRPPRLPRPRPRPQCSPRP, the “shrunken log2 fold change” value was -0.0935.
Turning to RRIRDRPPRLPRPRPRPWWMPRP, the “shrunken log2 fold change” value stood at 0.0169.
As for RRIRTRPPRLPRPRPRPHHLPRP, the “shrunken log2 fold change” value amounted to 0.0331.
In the case of RRIRYRPPRLPRPRPRPYKMPRP, the “shrunken log2 fold change” value was -0.277.
Regarding RRIRDRPPRLPRPRPRPWIPPRP, the “shrunken log2 fold change” value was -0.0565.
In the case of RRIRERPPRLPRPRPRPWFWPRP it was 0.061; in that of RRIRKRPPRLPRPRPRPQVIPRP, 0.108; in that of RRIRMRPPRLPRPRPRPFKYPRP, -0.164.
As for RRIRHRPPRLPRPRPRPQSFPRP, the “shrunken log2 fold change” value is 0.0133.
With RRIRIRPPRLPRPRPRPSARPRP, the “shrunken log2 fold change” value is -0.067.
RRIRGRPPRLPRPRPRPSLTPRP: the “shrunken log2 fold change” value worked out at 0.78.
As for RRIRQRPPRLPRPRPRPNLNPRP, the figure is -0.221.
With RRIRGRPPRLPRPRPRPSRYPRP, the “shrunken log2 fold change” value is -0.0843.
With RRIRDRPPRLPRPRPRPFDQPRP, the “shrunken log2 fold change” value is -0.115.
Take RRIRLRPPRLPRPRPRPLLTPRP: the “shrunken log2 fold change” value amounted to 0.0657.
As to RRIRSRPPRLPRPRPRPVCDPRP, the “shrunken log2 fold change” value stood at 0.327.
For the sequence RRIRLRPPRLPRPRPRPPTHPRP, the “shrunken log2 fold change” value was 0.147.
In the case of RRIRHRPPRLPRPRPRPHWQPRP, the “shrunken log2 fold change” value was -0.00133.
Regarding RRIRARPPRLPRPRPRPTIIPRP, the “shrunken log2 fold change” value was -0.0837.
Take RRIRPRPPRLPRPRPRPKAIPRP: the “shrunken log2 fold change” value came to 0.11.
As to RRIRIRPPRLPRPRPRPQKNPRP, the “shrunken log2 fold change” value was -0.355.
